Results reported in article PMC8639739, “Catalytic flexibility of rice glycosyltransferase OsUGT91C1 for the production of palatable steviol glycosides” (Nature Communications, 2021).

Columns and labels:
OsUGT91C1 = biological target: T1, OsUGT91C1 (Oryza sativa, UniProt Q0DPB7); assay: X-ray crystal structure; type: binding; conditions: complexes with Reb E, ST or STB; UDP-glucose site
T1 construct: gene Os03g0702000; synthetic coding region in pET28b, His-tagged, E. coli BL21(DE3); HisTrap and gel filtration; tag removal not mentioned; monomer
T1 sequence (Q0DPB7 1-462): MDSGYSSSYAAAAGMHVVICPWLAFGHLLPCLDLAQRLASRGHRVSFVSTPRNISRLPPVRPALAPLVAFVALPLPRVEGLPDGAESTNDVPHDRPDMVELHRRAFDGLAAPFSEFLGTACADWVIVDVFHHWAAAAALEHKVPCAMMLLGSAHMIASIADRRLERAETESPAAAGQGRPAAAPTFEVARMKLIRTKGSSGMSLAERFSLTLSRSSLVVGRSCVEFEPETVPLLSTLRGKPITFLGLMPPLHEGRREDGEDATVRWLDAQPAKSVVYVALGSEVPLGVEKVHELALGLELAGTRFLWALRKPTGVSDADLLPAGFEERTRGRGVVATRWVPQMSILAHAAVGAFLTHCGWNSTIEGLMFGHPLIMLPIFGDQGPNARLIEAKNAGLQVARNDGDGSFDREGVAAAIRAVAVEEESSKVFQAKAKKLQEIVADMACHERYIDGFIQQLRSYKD

purified protein = substrate: C=C1C[C@@]23CC[C@H]4[C@@](C)(CCC[C@@]4(C)C(=O)O[C@@H]4O[C@H](CO)[C@@H](O)[C@H](O)[C@H]4O)[C@@H]2CC[C@]1(O[C@@H]1O[C@H](CO)[C@@H](O)[C@H](O[C@@H]2O[C@H](CO)[C@@H](O)[C@H](O)[C@H]2O)[C@H]1O[C@@H]1O[C@H](CO)[C@@H](O)[C@H](O)[C@H]1O)C3; assay: purified protein; conditions: 200 μM UDP-glucose; beta(1-2) glucosylation at R2
[1] = substrate: C=C1C[C@@]23CC[C@H]4[C@@](C)(CCC[C@@]4(C)C(=O)O)[C@@H]2CC[C@]1(O[C@@H]1O[C@H](CO)[C@@H](O)[C@H](O)[C@H]1O)C3; assay: UDP-Glo glycosyltransferase assay, Michaelis-Menten fit; type: biochemical, Oryza sativa; conditions: 200 μM UDP-glucose; beta(1-2) glucosylation at R1
[2] = substrate: C=C1C[C@@]23CC[C@H]4[C@@](C)(CCC[C@@]4(C)C(=O)O[C@@H]4O[C@H](CO)[C@@H](O)[C@H](O)[C@H]4O)[C@@H]2CC[C@]1(O[C@@H]1O[C@H](CO)[C@@H](O)[C@H](O)[C@H]1O)C3; assay: as above; type: biochemical, Oryza sativa; conditions: 200 μM UDP-glucose; combined beta(1-2) glucosylation at R1 and R2
[3] = substrate: C=C1C[C@@]23CC[C@H]4[C@@](C)(CCC[C@@]4(C)C(=O)O)[C@@H]2CC[C@]1(O[C@@H]1O[C@H](CO)[C@@H](O)[C@H](O)[C@H]1O[C@@H]1O[C@H](CO)[C@@H](O)[C@H](O)[C@H]1O)C3; assay: as above; type: biochemical, Oryza sativa; conditions: 200 μM UDP-glucose; beta(1-6) glucosylation at R1; crystal structure with UDP, R1 end at active site

Q: For `O=c1ccn([C@@H]2O[C@H](COP(=O)(O)OP(=O)(O)O)[C@@H](O)[C@H]2O)c(=O)[nH]1` [UDP], which X-ray crystal structure (OsUGT91C1) is on record?
A: UDP is bound identically in all four complexes

B1: OsUGT91C1 (Oryza sativa Japonica Group; F208M) (protein)
chain: MDSGYSSSYAAAAGMHVVICPWLAFGHLLPCLDLAQRLASRGHRVSFVSTPRNISRLPPVRPALAPLVAFVALPLPRVEGLPDGAESTNDVPHDRPDMVELHRRAFDGLAAPFSEFLGTACADWVIVDVFHHWAAAAALEHKVPCAMMLLGSAHMIASIADRRLERAETESPAAAGQGRPAAAPTFEVARMKLIRTKGSSGMSLAERMSLTLSRSSLVVGRSCVEFEPETVPLLSTLRGKPITFLGLMPPLHEGRREDGEDATVRWLDAQPAKSVVYVALGSEVPLGVEKVHELALGLELAGTRFLWALRKPTGVSDADLLPAGFEERTRGRGVVATRWVPQMSILAHAAVGAFLTHCGWNSTIEGLMFGHPLIMLPIFGDQGPNARLIEAKNAGLQVARNDGDGSFDREGVAAAIRAVAVEEESSKVFQAKAKKLQEIVADMACHERYIDGFIQQLRSYKD
notes: synthetic coding region in pET28b, His-tagged, E. coli BL21(DE3); HisTrap and gel filtration; tag removal not mentioned; monomer
Q: How did the Km (purified protein) turn out when B1 was run?
A: 25.2 ± 2.0 µM

Q: What about the kcat (purified protein) of the same molecule?
A: 0.0483 s⁻¹

Q: And the kcat/Km (purified protein)?
A: 1920 M⁻¹ s⁻¹

Q: What about the Km [1] of the same molecule?
A: 18.7 ± 1.7 µM

Q: What about the kcat [1] of the same molecule?
A: 0.065 ± 0.00167 s⁻¹

Q: And the kcat/Km [1]?
A: 3480 M⁻¹ s⁻¹

Q: What about the Km [2] of the same molecule?
A: 20.9 ± 1.7 µM

Q: And the kcat [2]?
A: 0.04 ± 0.00167 s⁻¹

Q: What about the kcat/Km [2] of the same molecule?
A: 1910 M⁻¹ s⁻¹

B2: OsUGT91C1 (Oryza sativa Japonica Group) (protein)
chain: MDSGYSSSYAAAAGMHVVICPWLAFGHLLPCLDLAQRLASRGHRVSFVSTPRNISRLPPVRPALAPLVAFVALPLPRVEGLPDGAESTNDVPHDRPDMVELHRRAFDGLAAPFSEFLGTACADWVIVDVFHHWAAAAALEHKVPCAMMLLGSAHMIASIADRRLERAETESPAAAGQGRPAAAPTFEVARMKLIRTKGSSGMSLAERFSLTLSRSSLVVGRSCVEFEPETVPLLSTLRGKPITFLGLMPPLHEGRREDGEDATVRWLDAQPAKSVVYVALGSEVPLGVEKVHELALGLELAGTRFLWALRKPTGVSDADLLPAGFEERTRGRGVVATRWVPQMSILAHAAVGAFLTHCGWNSTIEGLMFGHPLIMLPIFGDQGPNARLIEAKNAGLQVARNDGDGSFDREGVAAAIRAVAVEEESSKVFQAKAKKLQEIVADMACHERYIDGFIQQLRSYKD
notes: as for B1
Q: How did the Km (purified protein) turn out when B2 was run?
A: 45.7 ± 3.0 µM

Q: And the kcat (purified protein)?
A: 0.0203 s⁻¹

Q: And the kcat/Km (purified protein)?
A: 445 M⁻¹ s⁻¹

Q: And the Km [1]?
A: 24.9 ± 2.5 µM

Q: What about the kcat [1] of the same molecule?
A: 0.0483 ± 0.00167 s⁻¹

Q: And the kcat/Km [1]?
A: 1940 M⁻¹ s⁻¹

Q: What about the Km [3] of the same molecule?
A: 71 ± 12 µM

Q: And the kcat [3]?
A: 0.0105 ± 0.0005 s⁻¹

Q: What about the kcat/Km [3] of the same molecule?
A: 148 M⁻¹ s⁻¹

Q: What about the Km [2] of the same molecule?
A: 49.5 ± 5.3 µM

Q: And the kcat [2]?
A: 0.0333 ± 0.00167 s⁻¹

Q: And the kcat/Km [2]?
A: 673 M⁻¹ s⁻¹

B3: OsUGT91C1 (Oryza sativa Japonica Group; F208M/F379A) (protein)
chain: MDSGYSSSYAAAAGMHVVICPWLAFGHLLPCLDLAQRLASRGHRVSFVSTPRNISRLPPVRPALAPLVAFVALPLPRVEGLPDGAESTNDVPHDRPDMVELHRRAFDGLAAPFSEFLGTACADWVIVDVFHHWAAAAALEHKVPCAMMLLGSAHMIASIADRRLERAETESPAAAGQGRPAAAPTFEVARMKLIRTKGSSGMSLAERMSLTLSRSSLVVGRSCVEFEPETVPLLSTLRGKPITFLGLMPPLHEGRREDGEDATVRWLDAQPAKSVVYVALGSEVPLGVEKVHELALGLELAGTRFLWALRKPTGVSDADLLPAGFEERTRGRGVVATRWVPQMSILAHAAVGAFLTHCGWNSTIEGLMFGHPLIMLPIAGDQGPNARLIEAKNAGLQVARNDGDGSFDREGVAAAIRAVAVEEESSKVFQAKAKKLQEIVADMACHERYIDGFIQQLRSYKD
notes: as for B1
Q: B3 was tested. Which Km (purified protein) did it give?
A: 15.1 ± 2.6 µM

Q: What about the kcat (purified protein) of the same molecule?
A: 0.0283 s⁻¹

Q: And the kcat/Km (purified protein)?
A: 1880 M⁻¹ s⁻¹

Q: What about the Km [1] of the same molecule?
A: 9.7 ± 1.9 µM

Q: What about the kcat [1] of the same molecule?
A: 0.0583 ± 0.00167 s⁻¹

Q: What about the kcat/Km [1] of the same molecule?
A: 6010 M⁻¹ s⁻¹

Q: And the Km [2]?
A: 11.7 ± 1.0 µM

Q: And the kcat [2]?
A: 0.0467 ± 0.00167 s⁻¹

Q: And the kcat/Km [2]?
A: 3990 M⁻¹ s⁻¹

B4: OsUGT91C1 (Oryza sativa Japonica Group; F379A) (protein)
chain: MDSGYSSSYAAAAGMHVVICPWLAFGHLLPCLDLAQRLASRGHRVSFVSTPRNISRLPPVRPALAPLVAFVALPLPRVEGLPDGAESTNDVPHDRPDMVELHRRAFDGLAAPFSEFLGTACADWVIVDVFHHWAAAAALEHKVPCAMMLLGSAHMIASIADRRLERAETESPAAAGQGRPAAAPTFEVARMKLIRTKGSSGMSLAERFSLTLSRSSLVVGRSCVEFEPETVPLLSTLRGKPITFLGLMPPLHEGRREDGEDATVRWLDAQPAKSVVYVALGSEVPLGVEKVHELALGLELAGTRFLWALRKPTGVSDADLLPAGFEERTRGRGVVATRWVPQMSILAHAAVGAFLTHCGWNSTIEGLMFGHPLIMLPIAGDQGPNARLIEAKNAGLQVARNDGDGSFDREGVAAAIRAVAVEEESSKVFQAKAKKLQEIVADMACHERYIDGFIQQLRSYKD
notes: as for B1
Q: B4 was tested. Which Km (purified protein) did it give?
A: 37.0 ± 2.5 µM

Q: And the kcat (purified protein)?
A: 0.0193 s⁻¹

Q: What about the kcat/Km (purified protein) of the same molecule?
A: 523 M⁻¹ s⁻¹

Q: What about the Km [1] of the same molecule?
A: 19.0 ± 2.6 µM

Q: What about the kcat [1] of the same molecule?
A: 0.0967 ± 0.00333 s⁻¹

Q: What about the kcat/Km [1] of the same molecule?
A: 5090 M⁻¹ s⁻¹

Q: What about the Km [2] of the same molecule?
A: 16.5 ± 2.6 µM

Q: What about the kcat [2] of the same molecule?
A: 0.045 ± 0.00167 s⁻¹

Q: What about the kcat/Km [2] of the same molecule?
A: 2730 M⁻¹ s⁻¹
